The target in data set [1] is T1, AibR (Myxococcus xanthus, UniProt Q1D4I5).
T1 sequence (Q1D4I5 1-228): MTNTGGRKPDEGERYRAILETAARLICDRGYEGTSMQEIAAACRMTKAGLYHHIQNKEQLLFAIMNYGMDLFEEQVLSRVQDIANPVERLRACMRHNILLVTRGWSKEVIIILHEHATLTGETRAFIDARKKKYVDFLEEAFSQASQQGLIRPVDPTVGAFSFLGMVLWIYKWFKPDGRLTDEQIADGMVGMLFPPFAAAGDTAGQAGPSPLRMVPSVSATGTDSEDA
Description: MST Kd with Cy5-labelled AibR. It counts as binding.

Data set [2] has as its target AibR, TetR-like transcriptional regulator of the AIB-operon (Myxococcus xanthus). The data set is described as follows: SEC. Background: SEC sorts molecules by how far they enter the pores of the column.
The target is the same in data set [3]. The data set is described as follows: crystal structure.
Data set [4] deals with T2, AibR (UniProt Q1D4I5 1-228).
T2 sequence: T1 sequence (Q1D4I5 1-228)
The data set is described as follows: EMSA.

Data set [5] addresses T2, AibR. Description: MST.
For data set [6], the target named is T2, AibR. Description: crystal structure.

Broadly, the Kd is the concentration at which binding is half-saturated. High values mean weaker binding, low ones tighter binding. `CC(C)=CC(=O)SCCNC(=O)CCNC(=O)[C@H](O)C(C)(C)COP(=O)(O)OP(=O)(O)OC[C@H]1O[C@@H](n2cnc3c(N)ncnc32)[C@H](O)[C@@H]1OP(=O)(O)O` [3,3-dimethylacrylyl coenzyme A] gave a Kd in data set [1] of 5800 ± 1510 nM.

What is called stoichiometry N is a count of units in the complex or per binding partner. On to “AibR, TetR-like transcriptional regulator of the AIB-operon (natural protein)”, for which the stoichiometry N in data set [2] and in data set [3] was 2 each time.

B1: 3aibR12 (G12T) (dsDNA)
DNA 1: CGCTGCTACCTACCGGTCTGTAGGTCTCCA
DNA 2: TCATCCGCGCCATGGAGACCTACAGACCGGTAGGTAGCAGCG
As to B1, in data set [4], the binding result is listed as “no binding”.

B2: aibR-Cy5 40 bp (dsDNA)
DNA 1: CCGCGTCGGGCGCTGCTACCTACCGGTCGGTAGGTCTCCA
DNA 2: TGGAGACCTACCGACCGGTAGGTAGCAGCGCCCGACGCGG
For the molecule B2, the Kd in data set [4] was determined as 233 ± 20 nM.

B3: aibR8 (dsDNA)
DNA 1: B2 DNA 1
DNA 2: TCATCCGCGCCATGGAGACCTACCGACCGGTAGGTAGCAGCGCCCGACGCGG
As for B3, the binding result in data set [4] is listed as “binds”.

B4: Cy5 21 bp operator (dsDNA)
DNA 1: GCTACCTACCGGTCGGTAGGT
DNA 2: ACCTACCGACCGGTAGGTAGC
In turn, B4 gave a Kd in data set [5] of 2300 ± 850 nM.

B5: P3791 (dsDNA)
DNA 1: CCCCTGCCCAACCTACCGGTCGGACGGTTCCTAGCGGG
DNA 2: TCATCCGCGCCACCCGCTAGGAACCGTCCGACCGGTAGGTTGGGCAGGGG
With B5, in data set [4], the binding result was “binds”.

B6: 16-bp palindrome (nt 2-17, G9A) (dsDNA)
DNA 1: CCTACCGATCGGTAGG
DNA 2: CCTACCGATCGGTAGG
For the molecule B6, the binding result in data set [6] is reported as “binds”.

For the origin of these results see paper PMC5389471 (Nucleic Acids Research, 2016).
